Key:
Settings in all cases: other: pH 7, 37° C., 0.25 mM NADH
[1] = substrate: CC(=O)C(=O)O; experiment: OHB/pyruvate reductase assay, Ll-Ldh wild type; format: biochemical, Lactococcus lactis
Text: (§1) The genes coding for (L)-malate dehydrogenase in Escherichia coli, Ec-mdh (SEQ ID NO: 1), (D)-lactate dehydrogenase in E. coli, Ec-ldhA (SEQ ID NO: 3), (L)-lactate dehydrogenase of Lactococcus lactis, Ll-ldhA (SEQ ID NO: 5), (L)-lactate dehydrogenase of Bacillus subtilis, Bs-ldh (SEQ ID NO: 7), (L)-lactate dehydrogenase of Geobacillus stearothermophilus, Gs-ldh (SEQ ID NO: 9), the two isoforms of the (L)-lactate dehydrogenase of Oryctalagus cuniculus, Oc-ldhA (SEQ ID NO: 11 and SEQ ID NO: 13), were amplified by PCR using the high-fidelity polymerase Phusion™ (Fermentas) and the primers listed in Table 1. Genomic DNAs of E. coli MG1655, L. lactis IL1403, and B. subtilis strain 168 were used as the template. The genes Oc-ldhA, and Gs-ldh were codon-optimized for expression in E. coli and synthesized by MWG Eurofins. The primers introduced restriction sites (Table 1) upstream of the start codon and downstream of the stop codon, respectively, facilitating the ligation of the digested PCR products into the corresponding sites of the pET28a+ (Novagen) expression vector using T4 DNA ligase (Fermentas). Ligation products were transformed into E. coli DH5a cells (NEB). […]

[2] = substrate: CC(=O)C(=O)O; experiment: OHB/pyruvate reductase assay, Gs-Ldh; format: biochemical, Geobacillus stearothermophilus
Text: as §1

[3] = substrate: O=C(O)C(=O)CCO; experiment: OHB/pyruvate reductase assay, Gs-Ldh; format: biochemical, Geobacillus stearothermophilus
Text: as §1

[4] = substrate: CC(=O)C(=O)O; experiment: OHB/pyruvate reductase assay, Ec-LdhA; format: biochemical, Escherichia coli
Text: as §1

[5] = substrate: O=C(O)C(=O)CCO; experiment: OHB/pyruvate reductase assay, Ec-LdhA; format: biochemical, Escherichia coli
Text: as §1

[6] = substrate: O=C(O)CC(=O)C(=O)O; experiment: OHB/oxaloacetate reductase assay (NADH oxidation at 340 nm), Ec-Mdh wild type; format: biochemical, Escherichia coli
Text: as §1

[7] = substrate: CC(=O)C(=O)O; experiment: OHB/pyruvate reductase assay, Ll-LdhA Q85N; format: biochemical, Lactococcus lactis
Method: (§2) Enzymatic assays: The reaction mixture contained 60 mM Hepes (pH 7), 50 mM potassium chloride, 5 mM MgCl2, 0.25 mM NADH, (optionally 5 mM fructose-1,6-bisphosphate) (all products from Sigma), and appropriate amounts of purified malate or lactate dehydrogenase or cell extract. Reactions were started by adding appropriate amounts of 2-oxo-4-hydroxybutyrate (OHB), pyruvate, or oxaloacetate (OAA). Enzymatic assays were carried out at 37° C. in 96-well flat bottomed microtiter plates in a final volume of 250 μL. The reactions were followed by the characteristic absorption of NADH at 340 nm (εNADH=6.22 mM^−1 cm^−1) in a microplate reader (BioRad 680XR).
(§3) Site-directed mutagenesis of the L. lactis ldhA gene was carried out using the pET28-Ll-ldhA plasmid as the template. Point mutations to change the amino acid sequence were introduced by PCR (Phusion 1U, HF buffer 20% (v/v), dNTPs 0.2 mM, direct and reverse primers 0.04 μM each, template plasmid 30-50 ng, water) using the oligonucleotide pairs listed in Table 3. The genes mutated by PCR contained a new restriction site listed in Table 3 (introduced using silent mutations) in addition to the functional mutation to facilitate identification of mutated clones. The PCR products were digested by DpnI at 37° C. for 1 h to remove template DNA, and transformed into competent E. coli DH5α (NEB) cells. […]

[8] = substrate: O=C(O)C(=O)CCO; experiment: OHB/pyruvate reductase assay, Ll-LdhA Q85N; format: biochemical, Lactococcus lactis
Method: as §2, §3

[9] = substrate: CC(=O)C(=O)O; experiment: OHB/pyruvate reductase assay, Ll-LdhA Q85N I226V; format: biochemical, Lactococcus lactis
Method: as §2, §3

[10] = substrate: O=C(O)C(=O)CCO; experiment: OHB/pyruvate reductase assay, Ll-LdhA Q85N I226V; format: biochemical, Lactococcus lactis
Method: as §2, §3

[11] = substrate: O=C(O)C(=O)CCO; experiment: OHB/oxaloacetate reductase assay, Ec-Mdh R81A M85Q I12V; format: biochemical, Escherichia coli
Method: as §2
Site-directed mutagenesis of the mdh gene from E. coli was carried out as described in Example 2 using the primers listed in Table 5. Plasmid pET28-Ec-mdh was used as the template.
Mutant enzymes were expressed, purified and tested for OHB and oxaloacetate reductase activity as described in Example 1. […] The mutation R81A in Ec-Mdh was combined with additional changes in the protein sequence.

B1: Lactococcus lactis (L)-lactate dehydrogenase Ll-LdhA (Ll-Ldh), wild type, SEQ ID NO: 6 (Lactococcus lactis subsp. lactis Il1403) (protein)
chain: MADKQRKKVILVGDGAVGSSYAFALVNQGIAQELGIVDLFKEKTQGDAEDLSHALAFTSPKKIYSADYSDASDADLVVLTSGAPQKPGETRLDLVEKNLRITKDVVTKIVASGFKGIFLVAANPVDILTYATWKFSGFPKNRVVGSGTSLDTARFRQALAEKVDVDARSIHAYIMGEHGDSEFAVWSHANVAGVKLEQWFQENDYLNEAEIVELFESVRDAAYSIIAKKGATFYGVAVALARITKAILDDEHAVLPVSVFQDGQYGVSDCYLGQPAVVGAEGVVNPIHIPLNDAEMQKMEASGAQLKAIIDEAFAKEEFASAVKN
B1 was tested. Which Km [1] did it give?
The Km was 2700 µM.

B2: Geobacillus stearothermophilus (L)-lactate dehydrogenase Gs-Ldh, SEQ ID NO: 10 (Geobacillus stearothermophilus) (protein)
chain: MKNNGGARVVVIGAGFVGASYVFALMNQGIADEIVLIDANESKAIGDAMDFNHGKVFAPKPVDIWHGDYDDCRDADLVVICAGANQKPGETRLDLVDKNIAIFRSIVESVMASGFQGLFLVATNPVDILTYATWKFSGLPHERVIGSGTILDTARFRFLLGEYFSVAPQNVHAYIIGEHGDTELPVWSQAYIGVMPIRKLVESKGEEAQKDLERIFVNVRDAAYQIIEKKGATYYGIAMGLARVTRAILHNENAILTVSAYLDGLYGERDVYIGVPAVINRNGIREVIEIELNDDEKNRFHHSAATLKSVLARAFTR
notes: made in house; host or cells: E. coli BL21 (DE3) star
Which results are given for B2?
Km [2]: 1200 µM; Km [3]: 1300 µM

B3: Escherichia coli (D)-lactate dehydrogenase Ec-LdhA, SEQ ID NO: 4 (Escherichia coli K-12) (protein)
chain: MKLAVYSTKQYDKKYLQQVNESFGFELEFFDFLLTEKTAKTANGCEAVCIFVNDDGSRPVLEELKKHGVKYIALRCAGFNNVDLDAAKELGLKVVRVPAYDPEAVAEHAIGMMMTLNRRIHRAYQRTRDANFSLEGLTGFTMYGKTAGVIGTGKIGVAMLRILKGFGMRLLAFDPYPSAAALELGVEYVDLPTLFSESDVISLHCPLTPENYHLLNEAAFEQMKNGVMIVNTSRGALIDSQAAIEALKNQKIGSLGMDVYENERDLFFEDKSNDVIQDDVFRRLSACHNVLFTGHQAFLTAEALTSISQTTLQNLSNLEKGETCPNELV
notes: as for B2
Which results are given for B3?
Km [4]: 1800 µM; Km [5]: 4800 µM

B4: Escherichia coli (L)-malate dehydrogenase Ec-Mdh, wild type, SEQ ID NO: 2 (Escherichia coli K-12) (protein)
chain: MKVAVLGAAGGIGQALALLLKTQLPSGSELSLYDIAPVTPGVAVDLSHIPTAVKIKGFSGEDATPALEGADVVLISAGVARKPGMDRSDLFNVNAGIVKNLVQQVAKTCPKACIGIITNPVNTTVAIAAEVLKKAGVYDKNKLFGVTTLDIIRSNTFVAELKGKQPGEVEVPVIGGHSGVTILPLLSQVPGVSFTEQEVADLTKRIQNAGTEVVEAKAGGGSATLSMGQAAARFGLSLVRALQGEQGVVECAYVEGDGQYARFFSQPLLLGKNGVEERKSIGTLSAFEQNALEGMLDTLKKDIALGEEFVNK
notes: as for B2
How did the Km [6] turn out when B4 was run?
The Km was 40 µM.

B5: Lactococcus lactis (L)-lactate dehydrogenase A Ll-LdhA variant Q85N, SEQ ID No. 30 (Lactococcus lactis subsp. lactis Il1403; Q85N) (protein)
chain: MADKQRKKVILVGDGAVGSSYAFALVNQGIAQELGIVDLFKEKTQGDAEDLSHALAFTSPKKIYSADYSDASDADLVVLTSGAPNKPGETRLDLVEKNLRITKDVVTKIVASGFKGIFLVAANPVDILTYATWKFSGFPKNRVVGSGTSLDTARFRQALAEKVDVDARSIHAYIMGEHGDSEFAVWSHANVAGVKLEQWFQENDYLNEAEIVELFESVRDAAYSIIAKKGATFYGVAVALARITKAILDDEHAVLPVSVFQDGQYGVSDCYLGQPAVVGAEGVVNPIHIPLNDAEMQKMEASGAQLKAIIDEAFAKEEFASAVKN
Which results are given for B5?
Km [7]: 22100 µM; Km [8]: 29200 µM

B6: Lactococcus lactis (L)-lactate dehydrogenase A Ll-LdhA variant Q85N I226V (Q85NI226V), SEQ ID No. 32 (Lactococcus lactis subsp. lactis Il1403; I226V/Q85N) (protein)
chain: MADKQRKKVILVGDGAVGSSYAFALVNQGIAQELGIVDLFKEKTQGDAEDLSHALAFTSPKKIYSADYSDASDADLVVLTSGAPNKPGETRLDLVEKNLRITKDVVTKIVASGFKGIFLVAANPVDILTYATWKFSGFPKNRVVGSGTSLDTARFRQALAEKVDVDARSIHAYIMGEHGDSEFAVWSHANVAGVKLEQWFQENDYLNEAEIVELFESVRDAAYSIVAKKGATFYGVAVALARITKAILDDEHAVLPVSVFQDGQYGVSDCYLGQPAVVGAEGVVNPIHIPLNDAEMQKMEASGAQLKAIIDEAFAKEEFASAVKN
What does the source list for B6?
Km [9]: 1400 µM; Km [10]: 3300 µM

B7: Escherichia coli malate dehydrogenase Ec-Mdh variant R81A M85Q I12V, SEQ ID No. 108 (Escherichia coli K-12; I12V/M85Q/R81A) (protein)
chain: MKVAVLGAAGGVGQALALLLKTQLPSGSELSLYDIAPVTPGVAVDLSHIPTAVKIKGFSGEDATPALEGADVVLISAGVAAKPGQDRSDLFNVNAGIVKNLVQQVAKTCPKACIGIITNPVNTTVAIAAEVLKKAGVYDKNKLFGVTTLDIIRSNTFVAELKGKQPGEVEVPVIGGHSGVTILPLLSQVPGVSFTEQEVADLTKRIQNAGTEVVEAKAGGGSATLSMGQAAARFGLSLVRALQGEQGVVECAYVEGDGQYARFFSQPLLLGKNGVEERKSIGTLSAFEQNALEGMLDTLKKDIALGEEFVNK
With B7 as the protein, how does the Km [11] read?
Its Km is 15000 µM.

Source: US11505811B2, “Method for the preparation of 2,4-dihydroxybutyrate” (ADISSEO FRANCE S.A.S., priority 2012, dated 2022)
